{"source": "patent US20210063414A1", "about": "“METHODS FOR PREVENTING AND/OR TREATING BONE LOSS CONDITIONS BY MODULATING IRISIN” (Dana-Farber Cancer Institute, Inc., priority 2018, published 2021)", "molecules": {"B1": {"name": "irisin: secreted cleaved form of FNDC5; recombinant human/mouse irisin with C-terminal his tag produced in HEK293 cells (protein)", "chain": "DSPSAPVNVTVRHLKANSAVVSWDVLEDEVVIGFAISQQKKDVRMLRFIQEVNTTTRSCALWDLEEDTEYIVHVQAISIQGQSPASEPVLFKTPREAEKMASKNKDEVTMKE", "modifications": "left off: small tags and cut ends", "notes": "secreted cleaved form of FNDC5; recombinant human/mouse irisin with C-terminal his tag produced in HEK293 cells"}}, "assay_in_all_cases": "Crosslinking/co-immunoprecipitation/mass spectrometry (TMT quantitative proteomics) to identify irisin receptors", "assay_type_in_all_cases": "binding", "key": {"[1]": {"target": "T1, MLO-Y4 cell surface proteins (Mus musculus, UniProt Q6ZPE2)", "T1 construct": "endogenous in cells; host or cells: MLO-Y4", "T1 sequence (Q6ZPE2 whole entry)": "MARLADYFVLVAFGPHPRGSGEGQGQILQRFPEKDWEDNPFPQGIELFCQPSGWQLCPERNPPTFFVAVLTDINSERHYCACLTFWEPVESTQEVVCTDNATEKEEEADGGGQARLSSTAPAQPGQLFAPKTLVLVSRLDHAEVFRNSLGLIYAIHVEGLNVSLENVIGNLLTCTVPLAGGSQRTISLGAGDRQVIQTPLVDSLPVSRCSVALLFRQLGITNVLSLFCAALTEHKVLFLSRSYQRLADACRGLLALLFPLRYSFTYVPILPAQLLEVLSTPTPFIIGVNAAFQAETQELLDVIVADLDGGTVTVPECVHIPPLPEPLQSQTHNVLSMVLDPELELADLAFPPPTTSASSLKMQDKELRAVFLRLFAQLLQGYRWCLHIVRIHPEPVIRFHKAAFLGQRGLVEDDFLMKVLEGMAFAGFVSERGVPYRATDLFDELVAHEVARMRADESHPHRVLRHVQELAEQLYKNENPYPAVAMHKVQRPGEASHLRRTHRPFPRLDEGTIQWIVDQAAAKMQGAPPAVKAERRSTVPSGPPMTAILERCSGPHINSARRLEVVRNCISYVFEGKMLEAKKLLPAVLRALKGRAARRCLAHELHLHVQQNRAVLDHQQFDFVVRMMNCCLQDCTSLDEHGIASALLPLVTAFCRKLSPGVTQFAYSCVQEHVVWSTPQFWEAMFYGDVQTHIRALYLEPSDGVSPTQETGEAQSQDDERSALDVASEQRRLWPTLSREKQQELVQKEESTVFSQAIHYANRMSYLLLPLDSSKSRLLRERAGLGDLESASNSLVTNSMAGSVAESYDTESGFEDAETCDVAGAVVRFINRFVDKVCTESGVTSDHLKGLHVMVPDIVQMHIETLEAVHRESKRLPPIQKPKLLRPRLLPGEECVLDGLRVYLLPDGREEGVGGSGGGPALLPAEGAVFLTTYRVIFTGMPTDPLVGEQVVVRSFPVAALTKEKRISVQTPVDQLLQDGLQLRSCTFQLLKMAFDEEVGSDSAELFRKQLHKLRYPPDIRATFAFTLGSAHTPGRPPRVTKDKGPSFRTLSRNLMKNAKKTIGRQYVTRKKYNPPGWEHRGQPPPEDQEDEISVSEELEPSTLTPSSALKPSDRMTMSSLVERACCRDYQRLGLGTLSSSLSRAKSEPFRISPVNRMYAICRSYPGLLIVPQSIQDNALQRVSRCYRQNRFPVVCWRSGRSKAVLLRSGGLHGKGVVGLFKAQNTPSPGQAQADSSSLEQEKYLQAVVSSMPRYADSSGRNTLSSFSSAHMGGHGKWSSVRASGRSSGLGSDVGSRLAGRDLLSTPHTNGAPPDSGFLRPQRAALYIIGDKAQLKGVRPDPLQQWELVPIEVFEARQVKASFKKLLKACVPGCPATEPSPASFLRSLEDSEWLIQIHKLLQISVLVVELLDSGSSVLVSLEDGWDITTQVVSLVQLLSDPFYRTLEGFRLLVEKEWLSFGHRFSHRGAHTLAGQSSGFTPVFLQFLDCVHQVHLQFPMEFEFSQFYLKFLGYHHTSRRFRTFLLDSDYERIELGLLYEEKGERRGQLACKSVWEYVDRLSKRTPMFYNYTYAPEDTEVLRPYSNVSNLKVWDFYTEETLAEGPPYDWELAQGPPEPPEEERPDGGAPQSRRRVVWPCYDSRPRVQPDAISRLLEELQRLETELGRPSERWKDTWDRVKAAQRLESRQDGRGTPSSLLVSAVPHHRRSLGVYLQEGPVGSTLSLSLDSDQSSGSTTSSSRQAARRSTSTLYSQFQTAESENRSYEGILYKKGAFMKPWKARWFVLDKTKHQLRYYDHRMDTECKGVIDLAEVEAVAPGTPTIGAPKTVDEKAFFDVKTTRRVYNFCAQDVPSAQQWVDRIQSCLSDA", "conditions": "co-precipitated protein Sbf1 (MTMR5_MOUSE)", "outline": "(§1)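 Mouse MLO-Y4 cells were switched to serum-free FreeStyle medium for 4 h, chilled, then exposed to 10 nM His-tagged irisin (or adipsin as control) for 20 min. Cells were crosslinked with 1.5 mM DTSSP (30 min, ice), and bound proteins were pulled down on Ni-NTA and eluted with 250 mM imidazole. Eluates were separated by SDS-PAGE, trypsin-digested in gel, TMT 6-plex labelled and quantified by MS3-based LC-MS/MS on an Orbitrap Fusion Lumos.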"}, "[2]": {"target": "T2, MLO-Y4 cell surface proteins (Mus musculus, UniProt Q3U1J4)", "T2 construct": "endogenous in cells; host or cells: MLO-Y4", "T2 sequence (Q3U1J4 whole entry)": "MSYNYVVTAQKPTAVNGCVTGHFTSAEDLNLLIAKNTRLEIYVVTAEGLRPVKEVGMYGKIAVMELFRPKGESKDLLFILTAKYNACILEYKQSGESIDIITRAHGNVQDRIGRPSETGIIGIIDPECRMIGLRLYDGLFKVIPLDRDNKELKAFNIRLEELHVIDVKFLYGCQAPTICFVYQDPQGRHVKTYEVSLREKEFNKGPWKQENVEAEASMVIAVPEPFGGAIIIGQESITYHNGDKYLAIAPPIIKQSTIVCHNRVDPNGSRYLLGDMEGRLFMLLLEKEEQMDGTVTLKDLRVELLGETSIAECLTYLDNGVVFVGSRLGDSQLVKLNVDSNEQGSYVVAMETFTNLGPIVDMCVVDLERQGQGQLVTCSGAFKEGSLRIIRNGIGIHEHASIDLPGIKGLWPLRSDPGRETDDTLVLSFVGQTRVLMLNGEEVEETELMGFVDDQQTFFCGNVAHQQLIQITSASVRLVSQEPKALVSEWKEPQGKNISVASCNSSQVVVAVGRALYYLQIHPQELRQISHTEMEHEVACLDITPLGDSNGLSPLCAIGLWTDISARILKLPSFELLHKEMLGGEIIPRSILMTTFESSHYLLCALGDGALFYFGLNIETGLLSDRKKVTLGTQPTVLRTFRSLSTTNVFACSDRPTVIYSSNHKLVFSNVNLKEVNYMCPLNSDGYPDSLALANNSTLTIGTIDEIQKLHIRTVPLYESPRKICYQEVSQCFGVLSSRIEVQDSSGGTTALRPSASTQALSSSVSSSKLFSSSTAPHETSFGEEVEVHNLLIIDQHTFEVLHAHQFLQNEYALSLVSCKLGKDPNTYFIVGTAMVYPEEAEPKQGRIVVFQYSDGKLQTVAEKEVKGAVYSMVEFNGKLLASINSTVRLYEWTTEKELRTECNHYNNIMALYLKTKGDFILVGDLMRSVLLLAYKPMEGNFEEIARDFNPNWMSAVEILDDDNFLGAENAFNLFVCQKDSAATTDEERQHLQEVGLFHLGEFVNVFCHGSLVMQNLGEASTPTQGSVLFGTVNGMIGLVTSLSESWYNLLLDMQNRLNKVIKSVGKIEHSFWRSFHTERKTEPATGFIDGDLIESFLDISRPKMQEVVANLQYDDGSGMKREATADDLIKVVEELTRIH", "conditions": "co-precipitated protein Ddb1 (DDB1_MOUSE)", "outline": "as §1"}, "[3]": {"target": "T3, MLO-Y4 cell surface proteins (Mus musculus, UniProt Q8BFT2)", "T3 construct": "endogenous in cells; host or cells: MLO-Y4", "T3 sequence (Q8BFT2 1-363)": "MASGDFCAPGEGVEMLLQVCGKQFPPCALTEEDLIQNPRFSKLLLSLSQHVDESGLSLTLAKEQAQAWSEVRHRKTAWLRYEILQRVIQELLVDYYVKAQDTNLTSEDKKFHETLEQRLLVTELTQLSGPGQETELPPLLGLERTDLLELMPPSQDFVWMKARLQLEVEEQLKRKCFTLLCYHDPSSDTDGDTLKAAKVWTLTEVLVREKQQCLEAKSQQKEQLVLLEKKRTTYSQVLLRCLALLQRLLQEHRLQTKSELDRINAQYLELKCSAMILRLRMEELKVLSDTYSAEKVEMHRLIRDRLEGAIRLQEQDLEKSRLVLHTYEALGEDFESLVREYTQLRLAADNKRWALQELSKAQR", "conditions": "co-precipitated protein Haus4 (HAUS4_MOUSE)", "outline": "as §1"}, "[4]": {"target": "T4, MLO-Y4 cell surface proteins (Mus musculus, UniProt Q08189)", "T4 construct": "endogenous in cells; host or cells: MLO-Y4", "T4 sequence (Q08189 1-693)": "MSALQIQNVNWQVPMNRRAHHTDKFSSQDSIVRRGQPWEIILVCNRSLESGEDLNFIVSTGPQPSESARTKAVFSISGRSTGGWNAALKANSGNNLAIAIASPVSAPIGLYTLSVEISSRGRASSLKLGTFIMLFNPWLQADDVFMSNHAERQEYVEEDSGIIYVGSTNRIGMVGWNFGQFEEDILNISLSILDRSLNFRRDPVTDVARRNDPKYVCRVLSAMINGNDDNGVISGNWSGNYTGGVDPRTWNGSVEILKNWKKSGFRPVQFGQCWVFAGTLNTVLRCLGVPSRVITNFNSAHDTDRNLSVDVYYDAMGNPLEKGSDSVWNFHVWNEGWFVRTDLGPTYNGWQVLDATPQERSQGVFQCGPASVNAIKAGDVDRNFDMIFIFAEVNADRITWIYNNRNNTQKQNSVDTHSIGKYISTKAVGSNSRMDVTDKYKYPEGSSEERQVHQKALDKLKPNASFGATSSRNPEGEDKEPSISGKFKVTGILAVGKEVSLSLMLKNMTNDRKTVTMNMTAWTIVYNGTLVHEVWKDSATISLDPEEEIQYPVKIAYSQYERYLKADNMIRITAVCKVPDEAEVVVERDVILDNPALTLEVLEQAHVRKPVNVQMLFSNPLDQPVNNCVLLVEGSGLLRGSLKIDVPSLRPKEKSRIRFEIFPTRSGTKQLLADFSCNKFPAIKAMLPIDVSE", "conditions": "co-precipitated protein Tgm3 (TGM3_MOUSE)", "outline": "as §1"}}}
{"molecule": "B1", "values": [{"measurement": "TMT signal-to-noise ratio", "setting": "[1]", "value": 37.3228}, {"measurement": "irisin/adipsin TMT signal-to-noise ratio", "setting": "[1]", "value": 0.525}, {"measurement": "TMT signal-to-noise ratio", "setting": "[2]", "value": 149.943}, {"measurement": "irisin/adipsin TMT signal-to-noise ratio", "setting": "[2]", "value": 0.352}, {"measurement": "TMT signal-to-noise ratio", "setting": "[3]", "value": 230.984}, {"measurement": "irisin/adipsin TMT signal-to-noise ratio", "setting": "[3]", "value": 0.446}, {"measurement": "TMT signal-to-noise ratio", "setting": "[4]", "value": 45.8379}, {"measurement": "irisin/adipsin TMT signal-to-noise ratio", "setting": "[4]", "value": 0.167}]}
